Results on four molecules are retold here after article PMC10879702, “Host ZCCHC3 blocks HIV-1 infection and production through a dual mechanism”.

For data set [1], the system named is GST-ZCCHC3 MF R168/247S (human). Put plainly: pull-down.
The test system of data set [2] is GST-ZCCHC3 MF R168S (human). Put plainly: pull-down.
The test system of data set [3] is GST-ZCCHC3 MF R247S (human). Put plainly: pull-down.
The target in data set [4] is T1, GST-ZCCHC3 MF (middle-fold domain) (human, UniProt Q9NUD5 159-334).
T1 sequence: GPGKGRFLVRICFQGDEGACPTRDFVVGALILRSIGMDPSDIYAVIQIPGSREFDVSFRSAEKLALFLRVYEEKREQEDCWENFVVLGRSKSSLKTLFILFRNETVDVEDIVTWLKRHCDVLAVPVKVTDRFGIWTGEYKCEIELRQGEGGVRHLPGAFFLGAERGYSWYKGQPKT
Put plainly: pull-down. Conditions: protein: recombinant; tags: GST; hairpin.

The target of data set [5] is T1, GST-ZCCHC3 MF (middle-fold domain). Put plainly: pull-down; Pull-down: 20 mM Tris-HCl pH 7.4, 30 mM NaCl, 0.1 mM MgCl2, 1 mM DTT, RNase inhibitor, 10 min; EMSA: 40 mM Tris pH 8.0, 2 mM KCl, 1 mM MgCl2, 1% NP-40, 1 mM DTT, 25 C, 10 min. As to conditions: protein: recombinant; tags: GST; hairpin. On the technique in general: A gel shift assay detects complexes by their altered migration in electrophoresis.

Take HIV-1 5' LTR (R-U5) RNA: the binding signal in data set [1] was 15 % of WT; in data set [2], 50 % of WT; in data set [3] it was 50 % of WT. Turning to CCACUGCUUAAGCCUCAAUAAAGCUUGCCUUGAGUGCUCAAAGUAGUGU (structured_RNA) [HIV-1 LTR SL2], the binding result in data set [4] was “binds”. Turning to CUAGAGAUCCCUCAGACCCUUUUAGUCAGUGUGGAAAAUCUCUAG (structured_RNA) [HIV-1 LTR SL3], the binding result in data set [5] was “binds”.

Regarding UCUCUGGUUAGACCAGAUCUGAGCCUGGGAGCUCUCUGGCUAACUAGGGA (structured_RNA) [HIV-1 LTR SL1], the binding result in data set [4] was “binds”.
